As usually defined, the Kd is the constant that tells how readily two partners part at equilibrium.

Substitutions are numbered along the chain they refer to.

From publication PMC8499627 (Antibody Therapeutics, 2021) come the findings set out here.

Conditions in all cases: both partners purified
For experiment [1], the target named is T1, Recombinant HBsAg protein (hepatitis B surface antigen) (Hepatitis B virus, strain ; …, UniProt P03141).
T1 construct: source: bought: Beijing Wantai Biological Pharmacy Enterprise
In words: SPR; Biacore 3000, 10°C; HBsAg immobilised (2 400 RU, sodium acetate pH 4.5); antibody 1.56-100 nM, 50 μL/min, 90 sec association, 600 sec dissociation. Background: In SPR one partner is held on a chip, and binding of the other changes the refractive index at the surface.

Experiment [2] has as its target T2, SEQ13 peptide (HBsAg aa 113-135) (Hepatitis B virus, strain  …, UniProt P03141).
T2 construct: source: synthetic peptide, bought: Sangon Biotech
T2 chain: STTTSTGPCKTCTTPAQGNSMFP
In words: ELISA; indirect ELISA kits (Beijing Wantai) on HBsAg, CR-T3-SEQ13 or SEQ13 peptides; purified antibodies titrated, EC50s.

The target in experiment [3] is T1, Recombinant HBsAg protein (hepatitis B …). The experiment is described as above.

B1: hu1-23 (antibody, V domains shown)
VH: QVQLQESGPGLVKPSETLSLTCTVSGGSITSNFWSWIRQPPGKGLEWIGYISGSGTYTDYNPSLKSRVTISVDTSKNQFSLKLSSVTAADTAVYYCARSHDYGSNDYAFDFWGQGTTVTVSS
VL: DIQMTQSPSSLSASVGDRVTITCRATQDISSSLNWYQQKPGKAPKLLIYYANRLQSGVPSRFSGSGSGTDFTLTISSLQPEDFATYYCQQYHSLPLTFGGGTKVEIK
notes: humanized VH: CDRs (IMGT) of C1-23 grafted on the most closely related human germline; humanized VK: CDRs (IMGT) of C1-23 grafted on the most closely related human germline; Human IgG1 CH and CK constant regions; also called humanized 1-23; Humanized antibody hu1-23; source: HEK-293F, transfected, purified (protein A)
For the molecule B1, the Kd in experiment [1] stood at 1.06 nM. In addition, the binding result in experiment [2] was “binds”.

B2: C1-23 (antibody, V domains shown)
VH: B1 VH with T17I, L20V, T23S, K65R, I70L, F79L, T116L, T117R
VL: B1 VL with D1E, Q3V, K45Q, Q55E, S63R, D70E, A84T
notes: cynomolgus monkey VH of monkey #1; cynomolgus monkey VL of monkey #1; Monkey-human chimeric antibody, human IgG1 constant regions; parent of hu1-23; source: HEK-293F, transfected, purified (protein A)
B2: the binding result in experiment [2] and in experiment [3] was “binds” each time.

B3: C3-13 (antibody, V domains shown)
VH: QVQLQESGPRLVKSSETLPLTCAVSGASNSSNYWSWIRQPPGKGLEWIGRIYGNSGSTDYNPSLKSRVSISTDTSKNQFSLKLSSVTAADTAVYFCARGSVYTYSWGQGVLVTVSS
VL: DIQMSQSPDSLAVSLGERVTINCKSSQSLLYSSNNKNYLAWYQQKPGQAPKLLFYWASTRESGVPNRFSGSGSGTDFTLTIRGLQAEDVAVYYCQQHYTTPLTFGQGTKVEIK
notes: cynomolgus monkey VH of monkey #3; cynomolgus monkey VL of monkey #3; Monkey-human chimeric antibody, human IgG1 constant regions; source: HEK-293F, transfected, purified (protein A)
On to B3, for which the binding result in experiment [2] and in experiment [3] was “binds” each time.
